The values below come from patent US20150104459A1.

For assay [1], the target named is recombinant soluble homotrimeric HA, A/common magpie/Hong Kong/5052/07 (H5N1) (influenza A virus A/common magpie/Hong Kong/5052/2007 (H5N1)). Description: microarray, trimeric HA, transfection supernatant. The following applies: remark: other sources report otherwise.
Assay [2] has as its target recombinant soluble homotrimeric HA of A/common magpie/Hong Kong/5052/07 (H5N1) (Influenza A virus A/common magpie/Hong Kong/5052/2007 (H5N1)). The assay is described as follows: HA microarray, BCC supernatant. The following applies: remark: other sources report otherwise.

B1: TCN-552 (5249_I23) (antibody, V domains shown)
VH: QVQVVQSGAEVKKPGSSVRVSCQASGGTFMNYAIIWVRRAPGQGLEWMGGIIPVFPTPNYAQMFQGRVTISTDESRSTSFLELTNLRYEDTAVYYCARRIYHGGNSGFDFWGQGTLVTVSS
VL: EIVLTQSPATLSLSPGERATLSCRASQSVGNYLAWYQQKPGQAPRLLIYDSSNRAPGIPARFSGSGSGTDFTLTISSLAPEDFAVYYCQQRSKWPPMYSFGHGTKLEIK
For B1, the Trimeric HA Binding RLU was 34600 RLU in assay [1] and 42200 RLU in assay [2].

B2: TCN-533 (5256_A17) (antibody, V domains shown)
VH: QVQLVQSGADVKKPGSSVTVSCKASGGSFSNYGINWVRQAPGQGLEWMGGIIPLINAPNYAPKFQGRVTITADMFSNIVSLQLTSLRTDDTAVYYCARRKMTTAIDYWGQGTLVTVSS
VL: QPVLSQPPSASASLGASVTLTCTLSSGFDNYQVAWYQQRPGKGPRFVMRVGNGGNVASKGDGIPDRFSVSGSGLNRYLTIKNIQEDDESDYYCGADHGSGNNFVSPYVFGGGTKLTVL
Turning to B2, in assay [2], the Trimeric HA Binding RLU was 44500 RLU.

B3: TCN-534 (5249_B02) (antibody, V domains shown)
VH: QVQLVQSGAEVKKPGSSVKVSCRESGGTFNGYTITWVRQAPGQGLEWMGGIIPMMGTVNYAQKLQGRVTITTDYFTKTAYMDLNNLRSEDTAMYYCVKIRYTGQQLLWGQGTLVTVSS
VL: DIQMTQSPSTLSASIGDRVTITCRASQSIASWLAWYQQKPGKAPKLLIYEAVNLESGVPSRFSGSGSGTDFTLTISSLQPDDFATYFCQHYGTISQTFGGGTKVEIK
With B3, the Trimeric HA Binding RLU in assay [2] came out at 32500 RLU.

B4: TCN-523 (5248_A17) (antibody, V domains shown)
VH: QVQLVQSGAEVKKPGSSVKVSCKASGGSFSNYAFSWVRQAPGQGLEWMGGTIPLLGTTNYAQKFQGRVTISADQFTSTAYMELGSLRSEDTAVYYCTRRKMTTAFDSWGQGTLVTVSS
VL: QPVLTQPPSASASLGASVTLTCTLSSAYSNYKVDWYQQRPGKGPRFVMRVGTGGIVGSKGDGIPDRFSVLGSGLNRYLTIKNIQEEDESDYHCGADHGSGSNFVSPYVFGGGTKLTVL
B4: the Trimeric HA Binding RLU in assay [2] was 45800 RLU.

B5: TCN-550 (5096_F06) (antibody, V domains shown)
VH: QVQLQESGPGLVKPSETLSLTCTVSGASINSHYWSWIRQPPGKGLEWIGYVYYSGSTTYNPSLKSRVTLSVDTSKNQFSLNLSSVTAADTAFYYCARHPYDVLTGSGDWFDPWGQGTLVTVSS
VL: SYVLTQAPSVSVAPGQTARITCGGNAIGSKKVHWYQHKAGQAPVLVVYDDTDRPSGIPERFSGSNSWSTATLTINRVEAGDEADYYCQVWDFTIDHVVFGGGTKLTVL
As for B5, in assay [1], the Trimeric HA Binding RLU is 993 RLU.

B6: TCN-530 (5248_H10a) (antibody, V domains shown)
VH: QVQLVQSGAEVRKPGSSVKVSCKASGGPFMSYAIGWVRQAPGQGLEWMGGINPVFGRPHYAQKFQGRVTIATDDSTKTSYMELSSLTSEDTGMYYCASRYSRSSPGTFESWGQGTLVTVSS
VL: EIVMTQFPATLSVSPGERVTLSCRASQSVSNNLAWYQQKPGQPPRLLIYDASTRATGVPAKFSGTGSGTEFTLSISSLQSEDFAVYYCQQYHNWPPSYSFGLGTKLEIK
On to B6, for which the Trimeric HA Binding RLU in assay [2] stood at 42500 RLU.

B7: TCN-538 (3206_O17) (antibody, V domains shown)
VH: QITLKESGPTLVKPTQTLTLTCVFSGFSLSITGVRVGWIRQPPGKALEWLALISWDDEKHYSPSLQSRLTITKDTSKNQVVLTMTNLDPVDTATYYCARSTDRGHVLRYFGWMLPGDAFDVWGQGTMVTVSS
VL: DIVMTQSPDFLPVSLGERATINCKSSQRVLYSSNNKNYLAWYQLKPGQPPKLIIYWASTRESGVPDRFSGSGSGTEFTLTISSLQAEDVAVYYCQQYYSRPYTFGQGTKLEIK
On to B7, for which the results for the Trimeric HA Binding RLU in assay [1] and in assay [2] were 3140 RLU and 18700 RLU, respectively.

B8: TCN-551 (5243_D01) (antibody, V domains shown)
VH: EVQLVQSGSEVKKPGESLKISCKGSGYSFSNYWIGWVRHMPGKGLEWMGIIYPGDSDTRYSPSFQGQVTMSADKSSSTVYLQWSSLKASDTAIYYCARRGGHSFGYGSGGDTHSEFDSWGQGTLVTVSS
VL: QSVLTQSPSVSAAPGQKVTISCSGSDSNIGDYFVCWYQHLPGKPPQLLIYENNKRPSGIPDRFSGSKSGTSATLGITGIQTGDEADYYCATWDGSLSAWVFGGGTKLTVL
Turning to B8, in assay [2], the Trimeric HA Binding RLU stood at 45700 RLU.

B9: TCN-537 (3194_D21) (antibody, V domains shown)
VH: QVQLQQWGSGLLKPSETLSLTCAVYGGSFRDDYWTWIRQPPGKGLEWIGEINHSGRTNYNPSLKSRVTISVDTSLKQFSLKVISVTAADTAVYYCARGTSHVSRYFDWLPPTNWFDPWGQGTQVTVSS
VL: DIVLTQSPGTLSLSPGERATLSCRASQSVSSSYLAWYQQKPGQAPRLVMYGAATRATGIPDRFSGSGSGPDFTLTISRLEPEDFAMYYCQQYGNSPITFGQGTRLEIK
B9: the Trimeric HA Binding RLU in assay [1] was 2070 RLU; in assay [2], 18700 RLU.

B10: TCN-557 (5081_A04) (antibody, V domains shown)
VH: QVQLVQSGAEVKKPGASVKVSCKASGHTFTGYYIHWVRQAPGQGLEWMGWINPDSGATSSAQNFQGRVTMTGDTSSSTAYMELSRLSFDDTAVYYCARVLFTSPFDFWGEGTLVTVSS
VL: QAVVTQEPSLAVSPGGTVTLTCGSSTGAVTRGHYPYWFQQKPGQAPRALIYDSAGNRHSWTPARFSGSLLGGKAALTLSGAQPEDEAEYYCLLSYSGVWVFGGGTKLTVL
Turning to B10, the Trimeric HA Binding RLU in assay [1] was determined as 54900 RLU.

B11: TCN-555 (5246_L16) (antibody, V domains shown)
VH: QVQLVQSGAEVKRPGSSVKVSCTASGGIFRKNAISWVRQAPGQGLEWMGGIIAVFNTANYAQKFQNRVKITADESGNTAYMELSSLTSDDTAVYYCASHPKYFYGSGSYPDFWGQGTLVTVSS
VL: QSALTQPRSVSGSPGQSITISCTGGSSDIGASNSVSWYQQHPGKAPKLVIFDVTERPSGVPHRFSGSKSGNTASLTVSGLQPDDEADYFCCAYGGKYLVVFGGGTKVTVL
For B11, the Trimeric HA Binding RLU in assay [1] was 33600 RLU; in assay [2], 16100 RLU.

B12: TCN-563 (5237_B21) (antibody, V domains shown)
VH: QVQLAQSGAEVKRPGSSVKVSCTASGGIFRKNAISWVRQAPGQGLEWMGGIIAVFNTANYAQKFQGRVKITADESGNTAYMELSSLRSDDTAVYYCASHPKYFYGSGSYPDFWGQGTLVTVSS
VL: QSALTQPRSVSGSPGQSVTISCTGSSSDVGASNSVSWYQQHPGKAPKLVIYDVTERPSGVPHRFSGSKSGNTASLTVSGLQPEDEADYFCCAYGGKYLVVFGGGTKVTVL
For B12, in assay [2], the Trimeric HA Binding RLU turned out to be 27500 RLU.

B13: TCN-542 (5079_A16) (antibody, V domains shown)
VH: QVQLQESGPGLVKPSQTLSLTCTVSGGSISSGNYYWNWVRQHPGKGLEWIGYIYYRGSTFYNPSLKSRVTISIDTSKNQFSLRLSSVTAADTAVYYCAKDTRSSLDNYQYGMDVWGQGTTVTVSS
VL: QTVVTQEPSLTVSPGGTVTLTCASSTGAVTSSYFPNWFQQKPGQAPRPLIYSTTIRHSWTPARFSGSLLGGKAALTLSGVQPEDEADYYCLLYSGGDPVAFGGGTKLTVL
In the case of B13, the Trimeric HA Binding RLU in assay [1] came out at 1670 RLU.

B14: TCN-553 (5261_C18) (antibody, V domains shown)
VH: QVQVVQSGTEVKKPGSSVKVSCQTSGGRFMSYAITWVRQAPGQGLEWMGGIVPVFGTANYAQKFQGRVTITTDDSTRTAYMELSSLRSEDTAVYYCGFRYGSGYGFDSWGQGTLVTVSS
VL: EIVLTQSPGTLSLSPGERATLSCRASQSVSSSYLAWYQKKPGQAPRLLIYGASTRATGIPDRFTGSGSGTDFTLSISRLEPEDFAVYYCQHFGTSVFTFGGGTKVEIK
Consider B14, for which the values for the Trimeric HA Binding RLU in assay [1] and in assay [2] were 39200 RLU and 26000 RLU, respectively.

B15: TCN-545 (5082_I15) (antibody, V domains shown)
VH: QVQLQQWGAGLLKPSETLSLSCAVFGGSFSDYYWTWIRQPPGKGLEWIGEIKHSGRTNYNPSLESRVTISVDTSKNQFSLKLSSVTAADTAIYYCARGTDPDTEGYCRSGSCSAFDFWGQGTLVTVSS
VL: EIVLTQSPGTLSLSPGERATLSCRASHFVNYRSLAWYQQTPGQVPRLLIYGASTRATGIPDRFSGSGSGTDFTLTISRLEPEDFAVYFCQQYGGSPRYTFGQGTRLEIK
With B15, in assay [1], the Trimeric HA Binding RLU is 1390 RLU.

B16: TCN-543 (5081_G23) (antibody, V domains shown)
VH: QVHLVQSGAEVRKPGDSVKVSCKTSGYTFSTYPVAWVRQVPGQGLEWMGWISTYNGNTNFAQNFQGRVTLTTDTTTNTAYMEVRSLKFDDTAVYYCARVEGSYRDFWNNQNRFDPWGQGTLVTVSS
VL: SYVLTQPPSVSVAPGQTARISCGGSNIGGKSVHWYQQKPGQAPVLVVYDDSGRPSGIPERFSGSNSGDTATLTISRVEAGDEADYFCQVWDNFGGVFGTGTKVTVL
With B16, the Trimeric HA Binding RLU in assay [1] is 1070 RLU.

B17: TCN-546 (5089_L08) (antibody, V domains shown)
VH: QVQLQQWGAGLLKPSETLSLTCGVYGGSLSDYYWSWIRQPPGKGLEWIGEINHSGGTNYNPSLKRRVTISVDTSKKQFSLKMNSVTAADTAVYYCARGTDPDTEVYCRAGNCAAFDFWGQGTLVTVSS
VL: EIVLTQSPGTLSLSPGERATLSCRASHFVIGRAVAWYQQKPGQAPRLLIYGASSRATGIPDRFSGSGSGTDFTLTISRLETEDFAVFYCQHYGSSPRYAFGQGTKLEIK
Consider B17, for which the Trimeric HA Binding RLU in assay [1] was found to be 1920 RLU.

B18: TCN-521 (3280_D18) (antibody, V domains shown)
VH: EVQLVQSGGGLVQPGGSLRLACVVSGFTVTSNYITWVRQAPGKGLEWVSVIYSHGRAYYSASVNGRFTISRHTSKNTVYLEMNSLRPEDTAVYYCAGGGLVGGYDEYFFDYWGQGTLATVSS
VL: ETVLTQSPGTLSLTPGERATLSCRVGQSVSGSHLAWYQQKPGQAPRLLIYGASSRATGIPDRFGGSVSGTDFTLTISRLEPEDSAVYYCQQYGDSRYTFGQGTKLEIK
On to B18, for which the Trimeric HA Binding RLU in assay [2] was 13500 RLU.

B19: TCN-540 (5060_F05) (antibody, V domains shown)
VH: QVQLVQSGGGVVQPGRSLRLSCAASGFTFSSYAMHWVRQAPGKGLEWVAIISYDGNDQYYTDSVKGRFTISRDSSKVYLQMHRLRPEDTAVYYCAKEFETSGYFHGSFDYWGQGILVTVSS
VL: QSALTQPASVSGSPGQSITISCTGTSSDVGGYNYVSWYQQHPGKAPKLLIYEVTNWPSGVSNRFSGSKSGNTASLTISGLQAEDEADYYCSSYAGSSTWVFGGGTRVTVL
With B19, the Trimeric HA Binding RLU in assay [1] was determined as 1800 RLU; in assay [2], 113 RLU.

B20: TCN-535 (5246_P19) (antibody, V domains shown)
VH: QVQLVQSGSEVKKPGTSVKVSCTASGSVFTNYGISWVRQAPGQGLEWMGGIIPLFGAAKYAQKFQGRVTITADESTKTVYMELSRLTSKDTAIYFCAKAPRVYEYYFDQWGQGTPVTVSS
VL: EIVLTQSPGTLSLSPGERATLSCRASQSVSSSQLAWYQQKPGQAPRLIIYGASTRATGIPDRFSGSGSGTDFTLTIGRLEPEDFAVFFCQQYSTSPPTFGQGTKVDFK
Turning to B20, the values for the Trimeric HA Binding RLU in assay [1] and in assay [2] were 477 RLU and 45900 RLU, respectively.
